What all share (type): cell-based
For assay [1], the system named is L363 cells. Description: JNG assay, co-culture with L363 cells. Conditions: for GFP induction: L363 cells (BCMA+), only in the presence of SAR adaptor BCMA-FHVH-74-EZIP (SEQ ID NO: 23119). The gist of the method:
(§1)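 Read-out is NFAT-driven GFP measured by flow cytometry after ~4–18 h co-culture of SAR-expressing JNG cells with target cells (E:T about 1:2). SARs were introduced by lentiviral spinfection and selected with puromycin or blasticidin when possible; scores (+/- to 5+ ≈ 5–50% GFP+) are relative to parental JNG cells.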

The subject of assay [2] is LNCaP cells. Description: JNG assay, co-culture with LNCaP cells. The note with it: for redirection to LNCaP cells: LNCaP (PSMA+) cells in the presence of SAR adaptor CD8SP-PSMA-USC76-chVH-EZIP (SEQ ID NO: 23118). Put shortly:
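Read-out is % GFP-positive cells by flow cytometry after ~4–18 h co-culture (E:T ≈1:2) of target lines with SAR-transduced, puromycin/blasticidin-selected JNG cells. Grades +/-, +, 2+…5+ correspond to approximately 5%, 10%, 20%, 30%, 40%, 50% GFP+ over parental JNG controls.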

Assay [3] relates to RAJI cells. As to the kind of experiment: JNG assay, co-culture with RAJI cells. Conditions: JNG cells expressing construct, co-culture with Raji. Put shortly: as §1

B1: SEQ ID NO: 22293: bispecific CD19xCD20 SAR with RZIP leucine zipper domain on hu-mR005-1 vL and CD20-VHH-USC1-2HCD26 on the vH domain (protein)
chain: MALPVTALLLPLALLLHAARPACMDPDLEIRAAFLRQRNTALRTEVAELEQEVQRLENEVSQYETRYGPLGGGKGTGGGGSGGGGSGGGGSEFDIQMTQSPSSLSASVGDRVTITCKASDHINNWLAWYQQKPGQAPKLLIYGATTLETGVPSRFSGSGSGTDYTLTISSLQPEDFATYYCQQSWNTPWTFGQGTKLEIKRLEDLKNVFPPEVAVFEPSEAEISHTQKATLVCLATGFYPDHVELSWWVNGKEVHSGVCTDPQPLKEQPALNDSRYCLSSRLRVSATFWQNPRNHFRCQVQFYGLSENDEWTQDRAKPVTQIVSAEAWGRADCGFTSESYQQGVLSATILYEILLGKATLYAVLVSALVLMAMVKRKDSRGRAKRSGSGATNFSLLKQAGDVEENPGPTSATMDWIWRILFLVGAATGAHSGPEVQLVESGGGLVQAGGSLRLSCAASGRTFSMGWFRQAPGKEREFVAAITYSGGSPYYADSVKGRFTISRDNAKNTVYLQMNSLKPEDTAVYYCAANPTYGSDWNAENWGQGTQVTVSSGSGGGGSGGGGSGGGGSFEQVQLQQPGAELVKPGASVKMSCKASGYAFSSYWINWMKQKPGQGLEWIGQIYPGDGDTNYNGKFKGRATLTADTSSSTAYMQLSSLTSEDSAVYFCARSITTVVGCAMDYWGQGTSVTVSSTRIQNPDPAVYQLRDSKSSDKSVCLFTDFDSQTNVSQSKDSDVYITDKCVLDMRSMDFKSNSAVAWSNKSDFACANAFNNSIIPEDTFFPSPESSCDVKLVEKSFETDTNLNFQNLSVIGFRILLLKVAGFNLLMTLRLWSSRAKRSGSGVKQTLNFDLLKLAGDVESNPGPSRGHMTEYKPTVRLATRDDVPRAVRTLAAAFADYPATRHTVDPDRHIERVTELQELFLTRVGLDIGKVWVADDGAAVAVWTTPESVEAGAVFAEIGPRMAELSGSRLAAQQQMEGLLAPHRPKEPAWFLATVGVSPDHQGKGLGSAVVLPGVEAAERAGVPAFLETSAPRNLPFYERLGFTVTADVEVPEGPRTWCMTRKPGA
As to B1, the GFP induction entry in assay [1] is on record as “robust induction of GFP”. Moreover, the “redirection to LNCaP cells” value in assay [2] was “could be redirected”.

B2: 22293 (protein)
chain: B1 chain
With B2, the “NFAT-GFP ASSAY: L363 with BCMA-FHVH-74-EZIP” value in assay [1] (L363 in presence of SAR adaptor BCMA-FHVH-74-EZIP) is given as “+3”. For the same molecule, the “NFAT-GFP ASSAY: LNCaP with PSMA-USC76-chVH-EZIP” value in assay [2] (LNCaP in presence of SAR adaptor PSMA-USC76-chVH-EZIP) is reported as “+5.5”.

B3: 22287 (protein)
chain: MALPVTALLLPLALLLHAARPACEVQLLESGGGLIQPGGSLRLSCAASGFTFSSHAMTWVRQAPGKGLEWVSAISGSGDYTHYADSVKGRFTISRDNSKNTVYLQMNSLRAEDSAVYYCAKDEDGGSLLGHRGQGTLVTVSSGTGGGGSGGGGSGGGGSEFDIQMTQSPSSLSASVGDRVTITCKASDHINNWLAWYQQKPGQAPKLLIYGATTLETGVPSRFSGSGSGTDYTLTISSLQPEDFATYYCQQSWNTPWTFGQGTKLEIKRLEGQPKANPTVTLFPPSSEELQANKATLVCLISDFYPGAVTVAWKADGSPVKAGVETTKPSKQSNNKYAASSYLSLTPEQWKSHRSYSCQVTHEGSTVEKTVAPTECSGRADCGFTSESYQQGVLSATILYEILLGKATLYAVLVSALVLMAMVKRKDSRGRAKRSGSGATNFSLLKQAGDVEENPGPTSTMDWIWRILFLVGAATGAHSLFNQEVQIPLTESYCGPCPKNWICYKNNCYQFFDESKNWYESQASCMSQNASLLKVYSKEDQDLLKLVKSAHWMGLVHIPTNGSWQWEDGSILSPNLLTIIEMQKGDCALYASSFKGYIENCSTPNTYICMQRTVSGGGGSGGGGSGGGGDLFNQEVQIPLTESYCGPCPKNWICYKNNCYQFFDESKNWYESQASCMSQNASLLKVYSKEDQDLLKLVKSAHWMGLVHIPTNGSWQWEDGSILSPNLLTIIEMQKGDCALYASSFKGYIENCSTPNTYICMQRTVGSGGGGSGGGGSGGGGSFEQVQLQQPGAELVKPGASVKMSCKASGYAFSSYWINWMKQKPGQGLEWIGQIYPGDGDTNYNGKFKGRATLTADTSSSTAYMQLSSLTSEDSAVYFCARSITTVVGCAMDYWGQGTSVTVSSTRASTKGPSVFPLAPSSKSTSGGTAALGCLVKDYFPEPVTVSWNSGALTSGVHTFPAVLQSSGLYSLSSVVTVPSSSLGTQTYICNVNHKPSNTKVDKRVEPKSCIPEDTFFPSPESSCDVKLVEKSFETDTNLNFQNLSVIGFRILLLKVAGFNLLMTLRLWSSRAKRSGSGVKQTLNFDLLKLAGDVESNPGPSRGHMTEYKPTVRLATRDDVPRAVRTLAAAFADYPATRHTVDPDRHIERVTELQELFLTRVGLDIGKVWVADDGAAVAVWTTPESVEAGAVFAEIGPRMAELSGSRLAAQQQMEGLLAPHRPKEPAWFLATVGVSPDHQGKGLGSAVVLPGVEAAERAGVPAFLETSAPRNLPFYERLGFTVTADVEVPEGPRTWCMTRKPGA
For the molecule B3, the “NFAT-GFP ASSAY: L363” value in assay [1] (co-culture with L363) is “+/- (refer to approximately 5%, 10%, 20%, 30%, 40% and 50% GFP positive cells)”. The “NFAT-GFP ASSAY: LNCaP with PSMA-USC76-chVH-G4S-ULBP2-S3” value in assay [2] (LNCaP in presence of SAR adaptor PSMA-USC76-chVH-G4S-ULBP2-S3) is “+ (refer to approximately 5%, 10%, 20%, 30%, 40% and 50% GFP positive cells)”. For the same molecule, the “NFAT-GFP ASSAY: Raji” value in assay [3] is 3+ (refer to approximately 5%, 10%, 20%, 30%, 40% and 50% GFP positive cells).

B4: SEQ ID NO: 22294: RZIP domain attached directly to truncated TCR chain [hTCRb-wt-opt2-6MD] with a short GS linker, without Ig or long linker (protein)
chain: MALPVTALLLPLALLLHAARPQLQLQESGPGLVKPSETLSLTCTVSGDSISSGDYYWGWIRQPPGKGLEWIGHIYYSGVTYYNPSLKSRVTISVDTSRNQFSLKLSSVTAADTAVYYCTREDSSNWRSRGQGTLVTVSSLEGSIPEDTFFPSPESSCDVKLVEKSFETDTNLNFQNLSVIGFRILLLKVAGFNLLMTLRLWSSRAKRSGSGVKQTLNFDLLKLAGDVESNPGPTSATMDWIWRILFLVGAATGAHSEFMDPDLEIRAAFLRQRNTALRTEVAELEQEVQRLENEVSQYETRYGPLGGGKTRGSGRADCGFTSESYQQGVLSATILYEILLGKATLYAVLVSALVLMAMVKRKDSRGRAKRSGSGATNFSLLKQAGDVEENPGPSRGHMTEYKPTVRLATRDDVPRAVRTLAAAFADYPATRHTVDPDRHIERVTELQELFLTRVGLDIGKVWVADDGAAVAVWTTPESVEAGAVFAEIGPRMAELSGSRLAAQQQMEGLLAPHRPKEPAWFLATVGVSPDHQGKGLGSAVVLPGVEAAERAGVPAFLETSAPRNLPFYERLGFTVTADVEVPEGPRTWCMTRKPGA
In the case of B4, the GFP induction entry in assay [1] is “Weaker results”. In addition, in assay [2], the “redirection to LNCaP cells” value is “Weaker results”.

These data come from patent US20230212319A1, “NOVEL ANTIGEN BINDING DOMAINS AND SYNTHETIC ANTIGEN RECEPTORS INCORPORATING THE SAME” (University of Southern California, priority 2020, published 2023).
